Residue numbers refer to the chain shown, from its start.
B1: 45-8E11-mHvKv-IgG2 (antibody, V domains shown)
VH: EVQLQQSGTVLARPGASVKMSCKASGYSFTSNWMHWVKQRPGQGLEWIGVIYPGNSDTSYNQKFKGKAKLTAVTSASTAYMELSSLTNEDSAVYYCTRGITTAPEYWGQGTTLTVSS
VL: NIVMTQSPKSMSMSVGERVTLSCKASENVGIYVSWYQQKPEQSPKLLIYGASNRYTGVPDRFTGSGSATDFTLTISSVQPEDLADYHCGHTYNYPFTFGSGTKLEIK
B2: 45-8F1-mHvKv-IgG2 (antibody, V domains shown)
VH: B1 VH with N32Y, E82D, E105D
VL: B1 VL with Y32H, N53S, R54G, T56N, H90Q, N93S
B3: 70-3F9-mHvKv-IgG2 (antibody, V domains shown)
VH: QVQLQQPGAELVRPGASVKLSCKASGYTFTSYWINWVKQRPGQGLEWIGNIFPSDSYTNYNQKFKDRAKLTVDKSSSTAYMQLSSPTSEDSAVYYCTRFGSSGYPDYYTMEYWGQGTSVTVSS
VL: DIQMTQSPASLSASVGETVTITCRASGNIDNYLAWYQQKQGKSPQLLVYNAKTLAEGVPSRFSGSGSGTEYSLKINSLQPEDFGSYHCQQYWTIPYTFGGGTKLEIK
B4: 56-2A6-mHvKv-IgG2 (antibody, V domains shown)
VH: QIQLVQSGPELKKPGETVKISCKASGYTFTNYGMNWVKQAPGKGFKWMGWINTYTGEPTYADDFKGRFAFSLEISASTAYLQINNLKNEDTATYFCARRDYLGAMDYWGQGTSVTVSS
VL: ENVLTQSPAIMSASPGEKVTMTCRASSSVSSSYLHWYQQKSGASPKLWIYSTSNLASGVPARFSGSGSGTSYSLTISSVEAEDAATYYCQQYSAYLYTFGGGTKLEIK
B5: 1C4-H2K3-IgG4 (antibody, V domains shown)
VH: QVQMVQSGAEVKKPGASVKLSCKASGFTFSSSYINWLRQAPGQSLEWIGWIFAGTGGTYYNQKFTGRVQITRDTSASTAYMELSSLRSEDTAIYYCARHSPRATLFDFWGQGTTLTVSS
VL: EIVLTQSPATLSLSPGERATMSCRASSSVNHMHWYQQKPGFSPRAWIYATSNLASGIPARFSGSGSGTSFTLTISSLEPEDFATYYCQQWSSNPYTFGGGTKLEIK
notes: humanized
B6: 1C4-H1K3-IgG4 (antibody, V domains shown)
VH: B5 VH with S44R, I48M, Q69T
VL: B5 VL
notes: humanized
B7: 1C4-H1K2-IgG4 (antibody, V domains shown)
VH: B5 VH with S44R, I48M, Q69T
VL: B5 VL with M21L, F41Q, S42A, W46L
notes: humanized
B8: 1C4-H1K4-IgG4 (antibody, V domains shown)
VH: B5 VH with S44R, I48M, Q69T
VL: B5 VL with L13A, A19V, K38R, F70Y, T71S
notes: humanized
B9: 1C4-H2K1-IgG4 (antibody, V domains shown)
VH: B5 VH
VL: B5 VL with M21L, F41Q, S42A, W46L, T84V
notes: humanized
B10: 1C4-H1K1-IgG4 (antibody, V domains shown)
VH: B5 VH with S44R, I48M, Q69T
VL: B5 VL with M21L, F41Q, S42A, W46L, T84V
notes: humanized; also called 1C4-IgG4-H1K1
B11: 45-7E9-mHvKv-IgG2 (antibody, V domains shown)
VH: QVQLKQSGPGLVQPSQSLSITCTVSGFSLTTYGVHWVRQPPGKGLEWLGVIWSDGNTDYNDAFISRLSITKDNSTSQVFFKMNGLQADDTAIYYCARNSITSVSFDCWGQGTTLTVSS
VL: DIVMTQSQKFMSTSVGDRVSVTCKASQNVGTTVAWYQQRPGQSPKALICSASYRYSGVPDRFTGSGSGTDFTLTISNVQSEDLAEYFCQQYNSYPLTFGSGTKLEIK
B12: 45-7G9-mHvKv-IgG2 (antibody, V domains shown)
VH: QVQLQQPGSALVRPGASVKLSCKASGYTFSNYWIHWVKQRHGQGLEWIGNIYPASDYTNYDEKFKNKGTLTVDTSSSTAYMHLSSLTSEDSAVYYCSRGYFGSLDYWGQGTSVTVSA
VL: DILLTQSPAILSVNPGERVSFSCRASQPIGTGIHWYQQRTNGSPRLLIKSASESISGIPSRFSGSGSGTDFTLTINNVESDDVGDYYCQQSYSWPTTFGGGTKLKIN
B13: 59-5E4-mHvKv-IgG2 (antibody, V domains shown)
VH: QVQLQQPGAELVRPGASVKLSCKASGYTFTTYWINWVRQRPGQGLEWIGNIYPSDSYTNYNQKFKDKASLTVDKSSNTAYMQLSSPTSEDSAVYYCAREAGDGTHYYAIDYWGQGTSVTVSS
VL: NIVMTQSPKSMSMSVGERVTLSCKASENVGTYVSWYQQKPEQSPKLLIYGASNRYPGVPDRFTGSGSATDFTLTISSLQAEDLADYHCGQGYSYLRTFGGGTNLEIK
B14: 55-8F6-mHvKv-IgG2 (antibody, V domains shown)
VH: QVQLQQPGAELVRPGASVKLSCKASGYIFTSYWINWVKQRPGQGLEWIGNIYPSDSYTNYNQKFKDKATLTVDKSSSTAYMQLSSPTSEDSAVYYCTRFHYGSSPFDNWGQGTTLTVSS
VL: DIQMTQSTSSLSASLGDRVTISCRASQDISHYLNWYQQKPDGTVKLLIYYTSRLHSGVPSRFSGSGSGTDYSLTISNLEQEDFATYFCQQGHTLPRTFGGGTKLEIK
B15: 45-4B9-mHvKv-IgG2 (antibody, V domains shown)
VH: EVQLQQSGPELVKPGASVKMSCKASGYTFTTYVMYWVKQRPGQGLEWIGYINPYNDDIRYNEKFKGKATLTSDRSSSTAYMELSSLTSEDSAVYLCARQGGDYWGQGTILTVSS
VL: DVQITQSPSYLAASPGETITVNCRASKNINKYLAWYQEKPGKTNKLLIYSGSTLQSGIPSRFSGSGSGTDFTLTISSLEPEDFAVYHCQQYNEYPLTFGAGTKLEMK
B16: 45-2B3-mHvKv-IgG2 (antibody, V domains shown)
VH: QVQLQQSGPELVKPGASVKISCKTSGYAFSTSWMNWVKQRPGQGLEWIGRIYPGDGDTDYNGRFKGKATLTADKSSSTAYLQLSSLTSVDSAVYFCARLDGYYEVFYFDYWGQGTTLTVSS
VL: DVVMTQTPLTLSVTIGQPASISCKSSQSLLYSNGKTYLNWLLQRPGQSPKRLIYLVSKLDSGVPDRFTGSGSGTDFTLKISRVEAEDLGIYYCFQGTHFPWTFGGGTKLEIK
B17: 70-6F10-mHvKv-IgG2 (antibody, V domains shown)
VH: QVQLQQSGPELVKPGASVKISCKASGYAFNNSWMNWVKQRPGQGLEWIGRIYPGDGDTDYNGKFKGKATLTADKSSSTAYMQLSSLTSVDSAVYFCARLDGNYYYWYFDVWGAGTTVTVSS
VL: not shown
B18: 29-6A5-mHvKv-IgG2 (antibody, V domains shown)
VH: QVQLQQPGAELVRPGASVKLSCKASGYTFSSYWINWVKQRPGQGLEWIGNIYPSDSYTNYNQKFKDKATLTVDKSSSTAYMQLSSPTSDDSAVYYCTRTWEFYYDSVFDYWGQGTTLTVSS
VL: DIKMTQSPSSMYASLGERVTITCKASQDINSYLSWFQQKPGKSPKTLIYRANRLVDGVPSRFSGSGSGQDYSLTISSLEYEDMGIYYCLQYDELPPTFGGGTKLEIK
B19: 61-6A7-mHvKv-IgG2 (antibody, V domains shown)
VH: EVQLQQSGAELVRPGALVKLSCKASGFNIKDYYMHWVKRRPEQGLEWIGWIDPENGNTIYDPKFQDKASITADTSSNTAYLQLSSLTSEDTAVYYCAEGLPWYFDYWGQGTTLTVSS
VL: QIILTQSPALMSASPGEKVTMTCSASSSVSDMNWYQQKPRSSPTPWIYLTSNLSSGVPDRFSGSGSGTSYSLTISSMEAEDAATYYCQQWSGNPLTFGAGTRLELK
B20: 45-8E2-mHvKv-IgG2 (antibody, V domains shown)
VH: EVKLLESGGGLVQPGGSLKLSCAASGFDFSRYWMSWVRQAPGKGLEWIGEIHPDSSAINYTPSLKDKFIISRDNAKNTLYLQMSKVRSEDTALYYCARSYYGRVFDYWGQGTTLTVSS
VL: DIVMTQSPATLSVTPGDRVSLSCRASQSISDYLHWYQQKSHESPRLLIKYASQSISGIPPRFSGSGSGSDFTLSINSVEPEDVGMYYCQDGHSFPPTFGAGTKLELK
B21: 54-8B11-mHvKv-IgG2 (antibody, V domains shown)
VH: QIQLVQSGPELKKPGETVKISCKASKFTFTNYGMNWVKQAPGKALKWMGWINTYTGEPTYADDFKGRFDFSLETSATTAYLQINNLKNEDTATYFCARREYYPWVFVYWGQGTLVTVSA
VL: ENVLTQSPAIMSASPGEKVTMTCSASSSVSYMHWYQQKSSTSPKLWIYDTSKLASGVPGRFSGSGSGNSYSLTISSMEAEDVATYYCFQGSGYPLTFGGGTKLEIK
B22: 30-5F9-mHvKv-IgG4 (antibody, V domains shown)
VH: QVQLKESGPGLVAPSQSLSITCTVSGFSLTTYDISWVRQPPGKGLEWLGVIWTGGGTNYNSSFMSRLSISKDNSKNQVFLKMNSLQVDDTAIYYCERVDYWGQGTTLTVSS
VL: DVVMTQTPLSLPVSLGDQASISCRSSQSLVHSNGNTYLHWYLQKPGQSPKLLIYKVSNRFSGVPDRFSGSGSGTAFTFKISRVEAEDLGVYFCSQNTHVPWTFGGGTKLEIK
B23: 16-1C4-mHvKv-IgG4 (antibody, V domains shown)
VH: QGQMQQSGAELVKPGASVKLSCKTSGFTFSSSYINWLKQKPGQSLEWIAWIFAGTGGTYYNQKFTGKAQLTVDTSSGTAYMQFSSLTTEDSAIYYCARHSPRATLFDFWGQGTTLTVSS
VL: QIVLSQSPAILSASPGEKVTMTCRASSSVNHMHWYQQRTGFSPKAWIYATSNLASGVPARFSGSGSGTSYSLTISRVEAEDAATYYCQQWSSNPYTFGGGTKLEIK
B24: 69-3C2-mHvKv-IgG2 (antibody, V domains shown)
VH: DVQLVESGGGLVQPGGSRKLSCAASGFSFSSFGMHWMRQAPEKGLEWVAYISSGSSAIYYADTVKGRFTISRDNPKNTLFLQMTSLRSEDTAMYYCARDWVDYWGQGTTLTVSS
VL: DIQMTQSPASLSVSVGETVTITCRASENIYSNLVWYQQKQGKSPQLLVYTATKLTNGVPSRFSGSGSGTQYSLKINSLQSEDFGTYYCQHFWDTPYTFGGGTKLEMK

Target: T1, Histidine-tagged human 4-1BB protein (h4-1BB-His) (human, UniProt Q07011 24-186)
T1 construct: not shown: histidine tag
Test: SPR (Biacore T200), antibody on Protein A chip, h4-1BB-His injected;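 further: dissociation phase followed for 300 s, Kd derived as koff divided by kon from the kinetic fit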
Description: The binding affinity of the anti-h4-1BB antibodies were measured using surface plasmon resonance (SPR) using Biacore (Biacore, INC, Piscataway N.J.) T200 biosensor equipped with pre-immobilized Protein A sensor chips.
Dissociation was monitored for 300 seconds. The chip was regenerated after the last injection of each titration with Glycine (pH 2.0, 30 μL/min for 5 seconds).
Affinities were calculated from the quotient of the kinetic rate constants (KD=koff/kon).

Binder	Kd	koff	kon
B1	0.597 nM	0.000127 s⁻¹	214000 M⁻¹ s⁻¹
B2	62.3 nM	0.00293 s⁻¹	47000 M⁻¹ s⁻¹
B3	0.16 nM	0.000159 s⁻¹	999000 M⁻¹ s⁻¹
B4	14 nM	0.00141 s⁻¹	101000 M⁻¹ s⁻¹
B5	17.6 nM	0.000502 s⁻¹	28500 M⁻¹ s⁻¹
B6	21.8 nM	0.000623 s⁻¹	28500 M⁻¹ s⁻¹
B7	22 nM	0.000605 s⁻¹	27500 M⁻¹ s⁻¹
B8	23.9 nM	0.000614 s⁻¹	25700 M⁻¹ s⁻¹
B9	19.4 nM	0.000502 s⁻¹	25900 M⁻¹ s⁻¹
B10	23.1 nM	0.000616 s⁻¹	26700 M⁻¹ s⁻¹
B11	15.3 nM	0.00916 s⁻¹	600000 M⁻¹ s⁻¹
B12	23.1 nM	0.0041 s⁻¹	177000 M⁻¹ s⁻¹
B13	0.313 nM	0.000331 s⁻¹	1.06e+06 M⁻¹ s⁻¹
B14	2.18 nM	0.00341 s⁻¹	1.57e+06 M⁻¹ s⁻¹
B15	110 nM	0.00298 s⁻¹	27200 M⁻¹ s⁻¹
B16	4.96 nM	0.000138 s⁻¹	27700 M⁻¹ s⁻¹
B17	10.9 nM	0.000263 s⁻¹	24100 M⁻¹ s⁻¹
B18	0.371 nM	0.000715 s⁻¹	1.93e+06 M⁻¹ s⁻¹
B19	0.359 nM	0.000513 s⁻¹	1.43e+06 M⁻¹ s⁻¹
B20	1.28 nM	0.000413 s⁻¹	323000 M⁻¹ s⁻¹
B21	12 nM	0.00502 s⁻¹	417000 M⁻¹ s⁻¹
B22	9.91 nM	0.00247 s⁻¹	249000 M⁻¹ s⁻¹
B23	20.5 nM	0.000502 s⁻¹	24400 M⁻¹ s⁻¹
B24	0.45 nM	0.000521 s⁻¹	1.16e+06 M⁻¹ s⁻¹

Source: US20240092922A1 (EUCURE BEIJING BIOPHARMA, published 2024)
